From patent US20230038638A1, “COMPLEMENT FACTOR I-RELATED COMPOSITIONS AND METHODS” (published 2023)

Key:
[1] = target: T1, human C4b (human) (UniProt P0C0L4)
T1 sequence: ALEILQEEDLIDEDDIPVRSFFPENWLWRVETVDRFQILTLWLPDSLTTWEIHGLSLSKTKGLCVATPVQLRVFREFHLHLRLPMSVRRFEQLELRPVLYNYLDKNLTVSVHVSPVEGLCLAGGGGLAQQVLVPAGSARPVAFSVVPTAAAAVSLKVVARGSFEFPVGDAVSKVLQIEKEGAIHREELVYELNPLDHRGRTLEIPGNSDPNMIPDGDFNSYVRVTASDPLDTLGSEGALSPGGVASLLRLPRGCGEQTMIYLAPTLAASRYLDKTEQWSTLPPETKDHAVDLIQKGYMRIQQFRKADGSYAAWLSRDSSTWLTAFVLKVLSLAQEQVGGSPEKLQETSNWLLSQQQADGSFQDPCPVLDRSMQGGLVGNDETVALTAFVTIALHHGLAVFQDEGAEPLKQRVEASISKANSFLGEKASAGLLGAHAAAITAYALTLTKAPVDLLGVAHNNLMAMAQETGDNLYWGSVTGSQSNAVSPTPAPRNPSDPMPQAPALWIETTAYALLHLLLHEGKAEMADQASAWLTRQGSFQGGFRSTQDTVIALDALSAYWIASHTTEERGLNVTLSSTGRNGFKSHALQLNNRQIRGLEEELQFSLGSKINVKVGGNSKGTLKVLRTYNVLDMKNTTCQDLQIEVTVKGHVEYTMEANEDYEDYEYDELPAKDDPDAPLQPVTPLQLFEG

[2] = target: soluble human C3b (human) (UniProt P01024)

Row | Substance | C4b Screen Ref Fold (fold of CFI-HSA wild type) [1] | iC3b Screen Ref Fold (fold of CFI-HSA wild type) [2] | C4b Screen Ref Fold (fold of reference) [1] | iC3b Screen Ref Fold (fold of reference) [2]
1 | CFI-HSA Y408L; S507A; N531G; GGSSGG (SEQ ID NO: 6); CCP_1-4 (enzyme) | 0.1 | 0.01 |  | 
2 | CFI-HSA D506L (enzyme) | 0.41 | -0.03 |  | 
3 | CFI-HSA variant G469L; R456N; K458A; E461G; F537K (enzyme) |  |  | -0.02 | 0.01
4 | CFI-HSA variant D425K; E457G; E461Q; K504R; N531G (enzyme) | 3.53 | 2.46 |  | 
5 | CFI-HSA Y408L; R462K; F464Y (enzyme) | 0.27 | 0.19 |  | 
6 | CFI-HSA F464L (enzyme) | 0.15 | 0 |  | 
7 | CFI-HSA variant G469L; R456N; K458A; E461G (enzyme) |  |  | -0.03 | 0
8 | CFI-HSA F208Y (enzyme) | 0.6 | 1.5 |  | 
9 | CFI-HSA variant E461P (enzyme) |  |  | -0.01 | 0.02
10 | CFI-HSA variant P558S (enzyme) |  |  | 0.77 | 1.56
11 | CFI-HSA D506N (enzyme) | 0.03 | 0.05 |  | 
12 | CFI-HSA variant Q409D (enzyme) |  |  | 0.09 | 0.14
13 | CFI-HSA variant G344K; Y408L; N531G (enzyme) |  |  | 1.2 | 0.93
14 | CFI-HSA variant Y408M; E530F (enzyme) | 0.11 | 0.95 |  | 
15 | CFI-HSA fusion WT; GGSSGG (SEQ ID NO: 6); CR1(ccp15); CR1(ccp16); fH(ccp3); fH(ccp4) (from UniProt P17927) (enzyme) |  |  | 0.25 | -0.01
16 | CFI-HSA T407G; N531G (enzyme) | 0.83 | 0.85 |  | 
17 | CFI-HSA variant R314A (enzyme) |  |  | 1.83 | 0.85
18 | CFI-HSA D506M (enzyme) | 0.05 | 0.01 |  | 
19 | CFI-HSA P535I (enzyme) | 0.62 | 0.65 |  | 
20 | CFI-HSA variant E461S (enzyme) |  |  | 1.32 | 0.95

Row | Substance | C4b Screen Ref Fold (fold of CFI-HSA wild type) [1] | iC3b Screen Ref Fold (fold of CFI-HSA wild type) [2] | C4b Screen Ref Fold (fold of reference) [1] | iC3b Screen Ref Fold (fold of reference) [2]
21 | CFI-HSA fusion WT; GGSSGG (SEQ ID NO: 6); CR1(ccp15); CR1(ccp16); CR1(ccp17); fH(ccp4) (from UniProt P17927) (enzyme) |  |  | 2.57 | 0.01
22 | CFI-HSA Y408L; N531G; F464Y (enzyme) | 5.93 | 1 |  | 
23 | CFI-HSA E457G; S507A; GGSSGG (SEQ ID NO: 6); CCP_1-4 (enzyme) | 0.12 | 0.01 |  | 
24 | CFI-HSA T346K; Y408L; K504D; E530K; N531G (enzyme) | 0.04 | 0.29 |  | 
25 | CFI-HSA Y408L; F464Y (enzyme) | 0.67 | 0.55 |  | 
26 | CFI-HSA Y408L; E457G; S507A; N531G (enzyme) | 0.12 | -0.01 |  | 
27 | CFI-HSA variant G469L (enzyme) |  |  | 0.04 | 0
28 | CFI-HSA P535M (enzyme) | 0.68 | 0.6 |  | 
29 | CFI-HSA E457G; N531G (enzyme) | 6.5 | 0.88 |  | 
30 | CFI-HSA variant G344Y (enzyme) |  |  | 1.93 | 0.43
31 | CFI-HSA K534V (enzyme) | 1.96 | 1.49 |  | 
32 | CFI-HSA H362T; V463S; R456I; S343R (enzyme) | 0.13 | -0.02 |  | 
33 | CFI-HSA K14A; D425R; Y408L-N531G (enzyme) | 3.94 | 1.78 |  | 
34 | CFI-HSA P535D (enzyme) | 0.14 | 0.01 |  | 
35 | CFI-HSA D425Y (enzyme) | 2.87 | 1.15 |  | 
36 | CFI-HSA D425P (enzyme) | 0.29 | 0.72 |  | 
37 | CFI-HSA variant Y408F; K504Y (enzyme) | 1.67 | 0.97 |  | 
38 | CFI-HSA Y408L; E457G; R462K (enzyme) | 5.24 | 1.02 |  | 
39 | CFI-HSA D506W (enzyme) | 0.01 | 0.03 |  | 

The next lines start with the values.

Row | C4b Screen Ref Fold (fold of CFI-HSA wild type) [1] | iC3b Screen Ref Fold (fold of CFI-HSA wild type) [2] | C4b Screen Ref Fold (fold of reference) [1] | iC3b Screen Ref Fold (fold of reference) [2] | Substance
40 | 4.89 | 1.12 |  |  | CFI-HSA Y408L; E530K; N531G (enzyme)
41 | 7.02 | 1.92 |  |  | CFI-HSA N531G; E457G; R462K (enzyme)
42 | 0.67 | 0.56 |  |  | CFI-HSA T407G; Y408L; E457G; N531G (enzyme)
43 |  |  | 0.15 | 0.11 | CFI-HSA variant K14A; Y20F; D26A; R35A; E38A (enzyme)
44 |  |  | 0.09 | 0.84 | CFI-HSA variant K312A (enzyme)
45 | 0.07 | 1.26 |  |  | CFI-HSA variant Y408M; F537K; K504R; P558S (enzyme)
46 |  |  | 0.75 | 0.57 | CFI-HSA variant N531V (enzyme)
47 | 2.65 | 0.92 |  |  | CFI-HSA K534S (enzyme)
48 | 0 | 0.02 |  |  | CFI-HSA variant Q373G (enzyme)
49 | 0.1 | 0.23 |  |  | CFI-HSA F464H (enzyme)
50 | 1.46 | 0.94 |  |  | CFI-HSA D425L (enzyme)
51 |  |  | 0.12 | 0.12 | CFI-HSA variant E461D (enzyme)
52 | 0.03 | 0.01 |  |  | CFI-HSA variant I391G (enzyme)
53 | 0.03 | 0.07 |  |  | CFI-HSA variant D425K; Y408M; E530F; F537K (enzyme)
54 | -0.01 | -0.04 |  |  | CFI-HSA variant E461Q; S507A (enzyme)
55 |  |  | 0 | 0.56 | CFI-HSA variant L304G; P305G; K306G; L307G; S308G (enzyme)
56 |  |  | 0.09 | -0.01 | CFI-HSA variant W381A (enzyme)
57 | 1.84 | 1.14 |  |  | CFI-HSA F480Y (enzyme)
58 | 1.24 | 0.77 |  |  | CFI-HSA P535R (enzyme)
59 | 5.6 | 1.29 |  |  | CFI-HSA Y408L; N531G; E461Q; F464Y (enzyme)
60 | 0.21 | 0.78 |  |  | CFI-HSA variant K419G (enzyme)
61 | 3.46 | 0.7 |  |  | CFI-HSA variant N531M; Y403F; K504Y; E457G; E461Q (enzyme)
62 | 2.94 | 1.54 |  |  | CFI-HSA L307S (enzyme)
63 | 6.56 | 1.25 |  |  | CFI-HSA E457G; E461Q; F464Y (enzyme)
64 | 0.19 | 0.3 |  |  | CFI-HSA P535F (enzyme)
65 | 1.47 | 1.15 |  |  | CFI-HSA variant G406A; Y403F (enzyme)
66 | 0.42 | 0.89 |  |  | CFI-HSA T407G; E457G (enzyme)
